These results are taken from patent publication US20230374534, “TRANSGENIC PLANT HAVING COLD RESISTANCE OVEREXPRESSING THIOREDOXIN TRX-H2 PROTEIN” (INDUSTRY-ACADEMIC COOPERATION FOUNDATION GYEONGSANG …, published 2023).

The target of one data set is MBP (control) (UniProt P0AEX9 P0AEX9:27-396). Nature of the data set: EMSA; His-MBP used as negative control; gel only in figure.
In the next data set the target is CBF1 (Arabidopsis thaliana, UniProt P93835 SEQ:1-213). In words: EMSA; 1 mM DTT (reducing), poly(dI-dC), 25 C, 30 min; binding redox-dependent; gel only in figure. The conditions noted are these: tags: His (pET28a, E. coli); label: biotin. On the procedure: FIGS. 3A to 3D are the results of EMSAs showing the redox-dependent binding of His-CBF1 to biotin-labeled COR15a promoter fragment (oligoprobe) in the presence of 1 mM DTT (FIG. 3A), 1 mM H₂O₂ (FIG. 3B), and a Trx system comprising 5 μM Trx-h2 (FIG. 3C) or Trx-h2(C/S) (FIG. 3D) with His-MBP as a control. FIG. 3E is the schematic representation of the COR15a promoter. P1 and P2 indicate the primer binding sites for qRT-PCR. […] (FIG. 3F) or 4° C. (FIG. 3G) for 6 h.
Chain of CBF1 (P93835 whole entry, the tested form may be a part): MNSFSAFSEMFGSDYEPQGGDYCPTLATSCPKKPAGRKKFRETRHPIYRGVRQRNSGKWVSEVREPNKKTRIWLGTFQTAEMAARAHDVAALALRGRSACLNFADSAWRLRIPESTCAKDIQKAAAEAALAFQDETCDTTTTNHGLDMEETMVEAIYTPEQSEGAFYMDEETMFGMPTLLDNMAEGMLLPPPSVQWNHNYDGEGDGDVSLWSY
To carry out EMSAs, a biotin-labeled oligonucleotide probe (Table 1) was processed using a lightshift™ chemiluminescent EMSA Kit (Thermo Fisher Scientific, Rockford, IL, USA). Recombinant CBF1 (5 μg) was incubated with 40 fmol of biotin-labeled probe and 20 μl of reaction mixture containing 25 ng/μl Poly (dl-dC) binding buffer at 25° C. for 30 min. The reaction products were resolved on a 6% polyacrylamide gels. Probes bound to CBF1 were transferred to charged Hybond-N membrane and detected by western blotting with anti-biotin antibody (Abcam, Cambridge, MA, USA).

B1: COR15a promoter CRT/DRE probe (-275 to -253) (dsDNA)
DNA 1: ATTTCATGGCCGACCTGCTTTTT
DNA 2: AAAAAGCAGGTCGGCCATGAAAT
Take B1: the binding result with MBP (control) is reported as “no binding”; with CBF1, “binds”.
